The values that follow come from article PMC10019796.

The target in this experiment is mtDsbC-SARS-CoV-2 RBD wild type fusion protein (SARS-CoV-2) (UniProt P0DTC2). In words: BLI; biotinylated mtDsbC-RBD (20 µg/mL) immobilised on streptavidin (SA) biosensors, Fabs as analytes at three nanomolar concentrations; Octet RED384, 30 °C, 1000 rpm, 1 × PBS Kinetics Buffer; 1:1 interaction model, global fit. For orientation: BLI is a label-free optical method that tracks binding on a fibre tip over time.

What is called Kd is a measure of binding affinity in units of concentration. A higher Kd goes with weaker binding.

REGN10987 (L93Q) Fab registered a Kd greater than 1000 nM.
